{
  "source": "paper PMC5992718",
  "origin": "cited, not measured here",
  "biological_target": "PD-L1 (Homo sapiens) (UniProt Q9NZQ7)",
  "sequence (Q9NZQ7 19-238)": "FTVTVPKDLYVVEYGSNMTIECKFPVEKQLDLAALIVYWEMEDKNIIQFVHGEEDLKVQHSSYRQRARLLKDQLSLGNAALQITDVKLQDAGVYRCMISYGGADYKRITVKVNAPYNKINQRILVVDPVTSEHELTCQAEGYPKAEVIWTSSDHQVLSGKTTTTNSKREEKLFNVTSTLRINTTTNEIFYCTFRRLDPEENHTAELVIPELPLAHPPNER",
  "data": [
    {"substance": "PD-1 (from UniProt Q02242)", "values": [
      {"measurement": "Kd", "result": 29.8, "unit": "µM"}
    ]}
  ]
}
